The target of test [1] is T1, thyroid hormone receptor TRβ (human, UniProt P10828 1-461).
T1 construct: mature; In vitro translated; also called TR-B; c-erb-A-B
T1 sequence (looked up): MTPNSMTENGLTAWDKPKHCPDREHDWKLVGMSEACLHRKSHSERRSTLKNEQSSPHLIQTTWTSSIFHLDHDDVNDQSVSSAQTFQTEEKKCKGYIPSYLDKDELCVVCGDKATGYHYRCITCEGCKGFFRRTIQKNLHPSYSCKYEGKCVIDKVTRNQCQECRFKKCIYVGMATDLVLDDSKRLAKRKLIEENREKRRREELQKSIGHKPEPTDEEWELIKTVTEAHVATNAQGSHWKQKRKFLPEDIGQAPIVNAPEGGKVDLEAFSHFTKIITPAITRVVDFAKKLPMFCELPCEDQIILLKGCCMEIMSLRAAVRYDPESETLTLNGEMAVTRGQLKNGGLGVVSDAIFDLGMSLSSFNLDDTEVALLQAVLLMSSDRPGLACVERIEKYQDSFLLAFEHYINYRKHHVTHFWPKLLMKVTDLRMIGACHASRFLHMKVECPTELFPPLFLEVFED
In words: gel retardation, 32P palindromic TRE (data not shown).

Test [2] addresses T2, retinoid x receptor (RXRα) (human, UniProt P19793 1-462).
T2 construct: mature; In vitro translated full length receptor; 35S-labelled in the column and immunoprecipitation experiments
T2 sequence (looked up): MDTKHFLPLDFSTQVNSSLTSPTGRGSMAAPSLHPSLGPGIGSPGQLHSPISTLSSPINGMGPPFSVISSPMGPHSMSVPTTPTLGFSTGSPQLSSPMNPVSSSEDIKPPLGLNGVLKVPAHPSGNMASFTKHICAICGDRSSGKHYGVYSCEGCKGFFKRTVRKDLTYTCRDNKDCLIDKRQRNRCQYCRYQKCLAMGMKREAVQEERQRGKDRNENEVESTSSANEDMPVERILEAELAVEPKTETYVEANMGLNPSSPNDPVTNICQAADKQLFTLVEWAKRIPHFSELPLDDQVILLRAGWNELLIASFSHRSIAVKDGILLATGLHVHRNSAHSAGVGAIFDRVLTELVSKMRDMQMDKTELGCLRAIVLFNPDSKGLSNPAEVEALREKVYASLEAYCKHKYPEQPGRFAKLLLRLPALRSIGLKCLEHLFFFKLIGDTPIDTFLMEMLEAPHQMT
In words: gel retardation, 32P palindromic TRE, in vitro translated receptors. The method, then: (§1) After incubation at room temperature for 45 minutes, the effect of antibody on slow migrating complexes was analyzed by gel retardation using ^32-labelled palindromic TRE as a probe. As a control, receptor mixtures were also incubated with preimmune serum (NI).
(§2) In vitro translated receptor protein (1 to 5 µl depending on the translation efficiency) was incubated with the ^32P-labeled oligonucleotides in a 20-µl reaction mixture containing 10 mM hepes buffer, pH 7.9, 50 mM KCl, 1 mM DTT, 2.5 mM MgCl, 10% glycerol, and 1 µg of poly(dI-dC) at 25° C. for 20 minutes. In general, relative low receptor concentration was used to obtain the clear effect of heterodimer formation. The reaction mixture was then loaded on a 5% nondenaturing polyacrylamide gel containing 0.5× TBE (1×TBE=0.089 M TRIS-borate, 0.089 M boric acid, and 0.002 M EDTA). […] When antibody was used, 1 µl of the antiserum was incubated with the specific translation products at room temperature for 45 minutes before performing the experiments described above.

Test [3] addresses T3, retinoic acid receptor RARγ (UniProt P13631 1-454, limits assumed).
T3 construct: mature; In vitro translated
T3 sequence (looked up): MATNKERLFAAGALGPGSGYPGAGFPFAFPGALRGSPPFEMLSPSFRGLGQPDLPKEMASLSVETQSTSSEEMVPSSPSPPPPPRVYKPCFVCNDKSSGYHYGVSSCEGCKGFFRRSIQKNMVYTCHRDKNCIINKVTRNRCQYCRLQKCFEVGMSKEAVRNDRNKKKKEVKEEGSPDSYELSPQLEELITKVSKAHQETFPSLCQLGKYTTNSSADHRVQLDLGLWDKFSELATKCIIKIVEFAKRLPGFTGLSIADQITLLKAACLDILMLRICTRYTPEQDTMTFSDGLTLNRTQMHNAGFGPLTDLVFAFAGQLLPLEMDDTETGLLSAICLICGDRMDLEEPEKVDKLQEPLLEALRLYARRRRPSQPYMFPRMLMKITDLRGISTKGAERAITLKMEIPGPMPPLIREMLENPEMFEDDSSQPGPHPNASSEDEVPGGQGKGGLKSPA
The test is described as above. The method, then: as §1, §2

Test [4] concerns the target T4, retinoic acid receptor RARβ (UniProt P10826 1-455, limits assumed).
T4 construct: mature; In vitro translated
T4 sequence (looked up): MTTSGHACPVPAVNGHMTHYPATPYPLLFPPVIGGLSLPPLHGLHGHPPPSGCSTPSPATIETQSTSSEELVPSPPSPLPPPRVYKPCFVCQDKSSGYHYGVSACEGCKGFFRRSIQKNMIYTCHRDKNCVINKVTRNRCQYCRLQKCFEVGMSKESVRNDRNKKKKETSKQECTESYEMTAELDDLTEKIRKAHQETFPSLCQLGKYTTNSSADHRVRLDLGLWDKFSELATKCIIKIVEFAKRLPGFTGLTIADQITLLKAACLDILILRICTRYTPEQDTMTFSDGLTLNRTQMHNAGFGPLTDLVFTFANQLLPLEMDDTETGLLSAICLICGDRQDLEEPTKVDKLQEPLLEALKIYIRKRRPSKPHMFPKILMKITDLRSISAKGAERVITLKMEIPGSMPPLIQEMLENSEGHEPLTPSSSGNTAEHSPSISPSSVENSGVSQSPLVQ
Nature of the test: gel retardation, 32P palindromic TRE (data not shown).

The target in test [5] is T5, retinoic acid receptor RARα (UniProt P10276 1-462, limits assumed).
T5 construct: mature; In vitro translated
T5 sequence (looked up): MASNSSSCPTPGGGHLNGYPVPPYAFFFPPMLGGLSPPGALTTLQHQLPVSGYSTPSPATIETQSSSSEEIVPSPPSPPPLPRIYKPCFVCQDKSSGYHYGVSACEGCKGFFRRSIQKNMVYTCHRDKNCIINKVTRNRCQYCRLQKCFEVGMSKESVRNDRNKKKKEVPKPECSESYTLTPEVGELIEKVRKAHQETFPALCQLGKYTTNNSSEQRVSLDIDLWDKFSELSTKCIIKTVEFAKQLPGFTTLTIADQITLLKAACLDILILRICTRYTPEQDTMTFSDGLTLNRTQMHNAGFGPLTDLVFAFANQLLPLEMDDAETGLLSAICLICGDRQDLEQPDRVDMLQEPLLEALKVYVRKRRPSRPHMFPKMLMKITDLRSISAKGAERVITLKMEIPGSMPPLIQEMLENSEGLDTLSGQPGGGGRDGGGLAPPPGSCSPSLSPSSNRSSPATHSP
The description is as above.

B1: RXRαm4 (receptor, human, UniProt P19793 61-462, looked up)
chain: MGPPFSVISSPMGPHSMSVPTTPTLGFSTGSPQLSSPMNPVSSSEDIKPPLGLNGVLKVPAHPSGNMASFTKHICAICGDRSSGKHYGVYSCEGCKGFFKRTVRKDLTYTCRDNKDCLIDKRQRNRCQYCRYQKCLAMGMKREAVQEERQRGKDRNENEVESTSSANEDMPVERILEAELAVEPKTETYVEANMGLNPSSPNDPVTNICQAADKQLFTLVEWAKRIPHFSELPLDDQVILLRAGWNELLIASFSHRSIAVKDGILLATGLHVHRNSAHSAGVGAIFDRVLTELVSKMRDMQMDKTELGCLRAIVLFNPDSKGLSNPAEVEALREKVYASLEAYCKHKYPEQPGRFAKLLLRLPALRSIGLKCLEHLFFFKLIGDTPIDTFLMEMLEAPHQMT
notes: range 61-462; 35S-labelled in the column experiment; also called mutant RXRαm4
With B1, the binding result in test [1] is “binds”.

B2: TRαm2 (receptor, UniProt P63059-2 1-213, looked up)
chain: MEQKPSKVECGSDPEENSARSPDGKRKRKNGQCPLKSSMSGYIPSYLDKDEQCVVCGDKATGYHYRCITCEGCKGFFRRTIQKNLHPTYSCKYDSCCVIDKITRNQCQLCRFKKCIAVGMAMDLVLDDSKRVAKRKLIEQNRERRRKEEMIRSLQQRPEPTPEEWDLIHVATEAHRSTNAQGSHWKQRRKFLPDDIGQSPIVSMPDGDKVDLE
notes: In vitro translated deletion mutant
Turning to B2, the binding result in test [2] is given as “no binding”.

B3: TRαm3 (receptor, UniProt P63059-2 1-167, looked up)
chain: MEQKPSKVECGSDPEENSARSPDGKRKRKNGQCPLKSSMSGYIPSYLDKDEQCVVCGDKATGYHYRCITCEGCKGFFRRTIQKNLHPTYSCKYDSCCVIDKITRNQCQLCRFKKCIAVGMAMDLVLDDSKRVAKRKLIEQNRERRRKEEMIRSLQQRPEPTPEEWDL
notes: as for B2
Consider B3, for which the binding result in test [2] is listed as “no binding”.

B4: RXRαm3 (receptor, human, UniProt P19793 28-462, looked up)
chain: MAAPSLHPSLGPGIGSPGQLHSPISTLSSPINGMGPPFSVISSPMGPHSMSVPTTPTLGFSTGSPQLSSPMNPVSSSEDIKPPLGLNGVLKVPAHPSGNMASFTKHICAICGDRSSGKHYGVYSCEGCKGFFKRTVRKDLTYTCRDNKDCLIDKRQRNRCQYCRYQKCLAMGMKREAVQEERQRGKDRNENEVESTSSANEDMPVERILEAELAVEPKTETYVEANMGLNPSSPNDPVTNICQAADKQLFTLVEWAKRIPHFSELPLDDQVILLRAGWNELLIASFSHRSIAVKDGILLATGLHVHRNSAHSAGVGAIFDRVLTELVSKMRDMQMDKTELGCLRAIVLFNPDSKGLSNPAEVEALREKVYASLEAYCKHKYPEQPGRFAKLLLRLPALRSIGLKCLEHLFFFKLIGDTPIDTFLMEMLEAPHQMT
notes: range 28-C-terminus
As for B4, the binding result in test [1] is “binds”.

B5: RARγm1 (receptor, UniProt P13631 1-352, looked up)
chain: MATNKERLFAAGALGPGSGYPGAGFPFAFPGALRGSPPFEMLSPSFRGLGQPDLPKEMASLSVETQSTSSEEMVPSSPSPPPPPRVYKPCFVCNDKSSGYHYGVSSCEGCKGFFRRSIQKNMVYTCHRDKNCIINKVTRNRCQYCRLQKCFEVGMSKEAVRNDRNKKKKEVKEEGSPDSYELSPQLEELITKVSKAHQETFPSLCQLGKYTTNSSADHRVQLDLGLWDKFSELATKCIIKIVEFAKRLPGFTGLSIADQITLLKAACLDILMLRICTRYTPEQDTMTFSDGLTLNRTQMHNAGFGPLTDLVFAFAGQLLPLEMDDTETGLLSAICLICGDRMDLEEPEKVDK
notes: In vitro translated deletion mutant; also called RARγml
With B5, the binding result in test [2] was “no binding”.

B6: RXRαm1 (receptor, human, UniProt P19793 1-402, looked up)
chain: MDTKHFLPLDFSTQVNSSLTSPTGRGSMAAPSLHPSLGPGIGSPGQLHSPISTLSSPINGMGPPFSVISSPMGPHSMSVPTTPTLGFSTGSPQLSSPMNPVSSSEDIKPPLGLNGVLKVPAHPSGNMASFTKHICAICGDRSSGKHYGVYSCEGCKGFFKRTVRKDLTYTCRDNKDCLIDKRQRNRCQYCRYQKCLAMGMKREAVQEERQRGKDRNENEVESTSSANEDMPVERILEAELAVEPKTETYVEANMGLNPSSPNDPVTNICQAADKQLFTLVEWAKRIPHFSELPLDDQVILLRAGWNELLIASFSHRSIAVKDGILLATGLHVHRNSAHSAGVGAIFDRVLTELVSKMRDMQMDKTELGCLRAIVLFNPDSKGLSNPAEVEALREKVYASLEA
notes: range: lacks the carboxyterminal 60 amino acids; In vitro translated deletion mutant
B6: the binding result in test [3], in test [4], in test [5] and in test [1] was “no binding” in each case.

B7: RXRαm6 (receptor, human, UniProt P19793 1-462, looked up)
chain: MDTKHFLPLDFSTQVNSSLTSPTGRGSMGMKREAVQEERQRGKDRNENEVESTSSANEDMPVERILEAELAVEPKTETYVEANMGLNPSSPNDPVTNICQAADKQLFTLVEWAKRIPHFSELPLDDQVILLRAGWNELLIASFSHRSIAVKDGILLATGLHVHRNSAHSAGVGAIFDRVLTELVSKMRDMQMDKTELGCLRAIVLFNPDSKGLSNPAEVEALREKVYASLEAYCKHKYPEQPGRFAKLLLRLPALRSIGLKCLEHLFFFKLIGDTPIDTFLMEMLEAPHQMT
notes: as for B2
For the molecule B7, the binding result in test [3] is given as “no binding”.

B8: RXRαm5 (receptor, human, UniProt P19793 198-462, looked up)
chain: MGMKREAVQEERQRGKDRNENEVESTSSANEDMPVERILEAELAVEPKTETYVEANMGLNPSSPNDPVTNICQAADKQLFTLVEWAKRIPHFSELPLDDQVILLRAGWNELLIASFSHRSIAVKDGILLATGLHVHRNSAHSAGVGAIFDRVLTELVSKMRDMQMDKTELGCLRAIVLFNPDSKGLSNPAEVEALREKVYASLEAYCKHKYPEQPGRFAKLLLRLPALRSIGLKCLEHLFFFKLIGDTPIDTFLMEMLEAPHQMT
Regarding B8, the binding result in test [3] is on record as “no binding”.
